This data set is described as follows: self-splicing fitness, log relative to wild type (ln ratio); higher = more splicing; Tetrahymena group I intron in knt gene, E. coli kanamycin selection, DiMSum; sequences stand for … in CUCUCU…GGAGGGAAAAGUUAUCAGGCAUGCACCUGGUAGCUAGUCUUUAAACCAAUAGAUUGCAUCGGUUUAAAAGGCAAGACCGUCAAAUUGCGGGAAAGGGGUCAACAGCCGUUCAGUACCAAGUCUCAGGGGAAACUUUGAGAUGGCCUUGCAAAGGGUAUGGUAAUAAGCUGACGGACAUGGUCCUAACCACGCAGCCAAGUCCUAAGUCAACAGAUCUUCUGUUGAUAUGGAUGCAGUUCACAGACUAAAUGUCGGUCGGGGAAGAUGUAUUCUUCUCAUAAGAUAUAGUCGGACCUCUCCUUAAUGGGAGCUAGCGGAUGAAGUGAUGCAACACUGGAGCCGCUGGGAACUAAUUUGUAUGCGAAAGUAUAUUGAUUAGUUUUGGAGUACUCGUGGUCG
A digest of the protocol:
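Six replicate transformations of E. coli BL21(DE3) with a pET-22b(+) library were grown overnight at 37°C or 30°C. The library randomised all eight P1ex-region intron nucleotides, the intron lying in the knt kanamycin-resistance gene, and plates were LB agar with or without 25 μg/mL kanamycin plus 100 μg/mL carbenicillin, 50 μM IPTG and 0.2% rhamnose. Pooled colonies were amplicon-sequenced on an Illumina HiSeq 2500, and fitness is the DiMSum error-weighted combination of wild-type-normalised replicate fold changes, kanamycin versus none.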

37 sequences from the supplement of paper PMC7877785 can be followed below.

± gives the uncertainty stated by the source.

Turning to AACUAGCAAUAUUACGGCGA, the “self-splicing fitness (ln)” value is -0.842 ± 0.1 (30 °C) and -0.155 ± 0.13 (37 °C). As to GGCAAGCAAUAUUACGCUGC, the “self-splicing fitness (ln)” value (30 °C) was -3.37 ± 0.27. Regarding ACAAAGCAAUAUUACGUCAC, the “self-splicing fitness (ln)” value by setting is: (30 °C) -4.13 ± 0.18; (37 °C) -2.53 ± 0.16. As to UGCCAGCAAUAUUACGUGAU, the “self-splicing fitness (ln)” value reads like this: (30 °C) -2.59 ± 0.14; (37 °C) -1.6 ± 0.099. The like results for GUCUAGCAAUAUUACGCUUA were, in that order, -0.87 ± 0.077 and 0.645 ± 0.097. As to UUGCAGCAAUAUUACGCCAA, the “self-splicing fitness (ln)” value runs as follows: (30 °C) -1.25 ± 0.19; (37 °C) 0.228 ± 0.24. Taken in the same sequence, the figures for AAAAAGCAAUAUUACGCUCU were -1.08 ± 0.081 and -0.167 ± 0.09. The like results for UGCUAGCAAUAUUACGUCGC were, in that order, -3.37 ± 0.2 and -2.65 ± 0.41. With CGUUAGCAAUAUUACGAGAG, the “self-splicing fitness (ln)” value is, setting by setting: (30 °C) -2.83 ± 0.25; (37 °C) 0.0196 ± 0.17. Taken in the same sequence, the figures for GUCGAGCAAUAUUACGGCGC were -0.811 ± 0.25 and -0.631 ± 0.44. On to ACAAAGCAAUAUUACGUCUA, for which the “self-splicing fitness (ln)” value reads like this: (30 °C) -2.1 ± 0.083; (37 °C) -0.824 ± 0.086.

Regarding AGGCAGCAAUAUUACGAGAU, the “self-splicing fitness (ln)” value reads like this: (30 °C) -3.01 ± 0.15; (37 °C) -2.26 ± 0.2. As for UCCAAGCAAUAUUACGAUAC, the “self-splicing fitness (ln)” value (30 °C) is -3.99 ± 0.42 and the “self-splicing fitness (ln)” value (37 °C) was -1.11 ± 0.3. For CGGGAGCAAUAUUACGCUGA, the “self-splicing fitness (ln)” value (30 °C) is -1.34 ± 0.21 and the “self-splicing fitness (ln)” value (37 °C) was -2.14 ± 0.31.

Consider UAACAGCAAUAUUACGUCGU, for which the “self-splicing fitness (ln)” value is -3.43 ± 0.14 (30 °C) and -2.04 ± 0.12 (37 °C). The like results for AUUGAGCAAUAUUACGUCGU were, in that order, -1.59 ± 0.15 and -1.69 ± 0.17. The like results for CACUAGCAAUAUUACGUGGU were, in that order, -3.41 ± 0.15 and -2.88 ± 0.17. The like results for AGAAAGCAAUAUUACGGCAA were, in that order, 0.0585 ± 0.1 and -0.187 ± 0.12. For CUCGAGCAAUAUUACGGACG, the “self-splicing fitness (ln)” value runs as follows: (30 °C) -2.4 ± 0.15; (37 °C) -2.25 ± 0.23. The like results for GCGAAGCAAUAUUACGUGCA were, in that order, -1.21 ± 0.13 and -0.452 ± 0.097. The like results for ACAAAGCAAUAUUACGAGCA were, in that order, -1.56 ± 0.14 and -0.49 ± 0.12. In the case of GUUGAGCAAUAUUACGACAG, the “self-splicing fitness (ln)” value reads like this: (30 °C) -4.09 ± 0.36; (37 °C) -2.49 ± 0.28. Taken in the same sequence, the figures for AGAAAGCAAUAUUACGGCUG were -0.141 ± 0.11 and -0.414 ± 0.16. Taken in the same sequence, the figures for GACUAGCAAUAUUACGGGAA were -2.32 ± 0.19 and -0.809 ± 0.16.

With AUAAAGCAAUAUUACGUGGA, the “self-splicing fitness (ln)” value (30 °C) is -3.9 ± 0.17 and the “self-splicing fitness (ln)” value (37 °C) is -1.38 ± 0.1. The like results for AAAUAGCAAUAUUACGCUAU were, in that order, -2.9 ± 0.18 and -2.22 ± 0.34. Taken in the same sequence, the figures for UCAGAGCAAUAUUACGAGUG were -2.93 ± 0.29 and -0.458 ± 0.17. Regarding GGACAGCAAUAUUACGGAAG, the “self-splicing fitness (ln)” value reads like this: (30 °C) -2.62 ± 0.13; (37 °C) -1.36 ± 0.14. Taken in the same sequence, the figures for GCAUAGCAAUAUUACGCUAC were -3.61 ± 0.34 and -2.11 ± 0.27. The like results for CGUGAGCAAUAUUACGCUCG were, in that order, -2.69 ± 0.26 and -2.64 ± 0.24. For the sequence AGCCAGCAAUAUUACGCAAA, the “self-splicing fitness (ln)” value runs as follows: (30 °C) -2.91 ± 0.34; (37 °C) -2.36 ± 0.2. CUUAAGCAAUAUUACGGUGU: the “self-splicing fitness (ln)” value (30 °C) was -3.31 ± 0.22 and the “self-splicing fitness (ln)” value (37 °C) is -2.02 ± 0.18.

Regarding UCGCAGCAAUAUUACGUUAU, the “self-splicing fitness (ln)” value is -3.3 ± 0.26 (30 °C) and -2.51 ± 0.24 (37 °C). On to GAGUAGCAAUAUUACGUCAA, for which the “self-splicing fitness (ln)” value (30 °C) is -2.1 ± 0.19 and the “self-splicing fitness (ln)” value (37 °C) was -1.8 ± 0.23. Taken in the same sequence, the figures for GAUGAGCAAUAUUACGCAAU were -4.35 ± 0.34 and -2.46 ± 0.19. The like results for AAGGAGCAAUAUUACGAACU were, in that order, -1.63 ± 0.15 and 0.581 ± 0.21. Taken in the same sequence, the figures for UCCAAGCAAUAUUACGAUGU were -1.37 ± 0.057 and -0.338 ± 0.082.
